This note sets out measurements from paper PMC3079584, “A Cytoplasmic Complex Mediates Specific mRNA Recognition and Localization in Yeast”.

One data set concerns the target T1, She3p (L364A V367A) (Saccharomyces cerevisiae, UniProt P38272 1-425, L364A;V367A).
T1 sequence: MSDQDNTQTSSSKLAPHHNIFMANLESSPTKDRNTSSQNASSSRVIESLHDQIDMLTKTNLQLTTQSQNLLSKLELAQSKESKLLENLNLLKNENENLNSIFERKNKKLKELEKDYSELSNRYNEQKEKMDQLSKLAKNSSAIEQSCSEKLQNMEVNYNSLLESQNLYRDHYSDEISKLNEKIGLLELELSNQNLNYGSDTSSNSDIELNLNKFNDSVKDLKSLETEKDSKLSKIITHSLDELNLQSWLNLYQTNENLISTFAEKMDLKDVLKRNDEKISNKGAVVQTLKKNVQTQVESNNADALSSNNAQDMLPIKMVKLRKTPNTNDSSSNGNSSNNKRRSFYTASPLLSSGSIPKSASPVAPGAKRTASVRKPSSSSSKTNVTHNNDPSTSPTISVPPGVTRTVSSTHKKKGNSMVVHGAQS
Kind of data set: EMSA; +++; EMSA: 20 mM HEPES pH 7.8, 200 mM NaCl, 2 mM MgCl2, 2 mM DTT, 4% glycerol, 30 or 100 ug/ml yeast tRNA, 5 nM RNA, 20 C; filter binding: 20 mM HEPES pH 7.4-7.5 (7.9 with She3p), 150 mM NaCl, 2 mM MgCl2, 2 mM DTT, 30 ug/ml yeast tRNA, 0.5 nM RNA; pull-down: HNMD buffer, 4 C. The note with it: protein: recombinant; tags: C-terminal His6; label: 32P; stem-loop.

A further data set deals with She2p;She3p (R341E) (Saccharomyces cerevisiae;Saccharomyces …, UniProt P36068;P38272 1-246;1-425, |R341E). The data set is described as follows: EMSA; synergism +++; EMSA: 20 mM HEPES pH 7.8, 200 mM NaCl, 2 mM MgCl2, 2 mM DTT, 4% glycerol, 30 or 100 ug/ml yeast tRNA, 5 nM RNA, 20 C; filter binding: 20 mM HEPES pH 7.4-7.5 (7.9 with She3p), 150 mM NaCl, 2 mM MgCl2, 2 mM DTT, 30 ug/ml yeast tRNA, 0.5 nM RNA; pull-down: HNMD buffer, 4 C. The note with it: protein: recombinant;recombinant; tags: GST tag (PreScission-cleaved);C-terminal His6; chain copies: 4;2; label: 32P; stem-loop.
Sequence of She2p;She3p (R341E) (P36068 whole entry, stated change not applied, one chain of several): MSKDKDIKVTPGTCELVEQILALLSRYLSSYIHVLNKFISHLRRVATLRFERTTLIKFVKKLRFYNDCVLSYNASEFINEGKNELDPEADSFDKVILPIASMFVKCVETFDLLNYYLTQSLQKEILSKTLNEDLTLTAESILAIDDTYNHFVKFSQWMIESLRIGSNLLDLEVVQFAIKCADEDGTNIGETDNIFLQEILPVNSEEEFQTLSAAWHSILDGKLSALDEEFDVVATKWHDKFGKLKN

Data set [1] deals with She2p (E183A D184A G185A);She3p (Saccharomyces cerevisiae;Saccharomyces …, UniProt P36068;P38272 1-246;1-425, E183A;D184A;G185A|). The description is as above. The note with it: protein: recombinant;recombinant; tags: GST tag (PreScission-cleaved);C-terminal His6; chain copies: 4;2; label: 32P; stem-loop.
Sequence of She2p (E183A D184A G185A);She3p (P36068 whole entry E183A/D184A/G185A, one chain of several): as the sequence (P36068 whole entry, stated change not applied, one chain of several) above, with E183A, D184A, G185A counted along it
Data set [2] addresses She2p (T191A D192A);She3p (Saccharomyces cerevisiae;Saccharomyces …, UniProt P36068;P38272 1-246;1-425, T191A;D192A|). Described as above. As to conditions: protein: recombinant;recombinant; tags: GST tag (PreScission-cleaved);C-terminal His6; chain copies: 4;2; label: 32P; stem-loop.
The target in data set [3] is She2p;She3p (S343E S361E) (Saccharomyces cerevisiae;Saccharomyces …, UniProt P36068;P38272 1-246;1-425, |S343E;S361E). The data set is described as above. As to conditions: protein: recombinant;recombinant; tags: GST tag (PreScission-cleaved);C-terminal His6; chain copies: 4;2; label: 32P; stem-loop.
Sequence of She2p;She3p (S343E S361E) (P36068 whole entry, stated change not applied, one chain of several): as the sequence (P36068 whole entry, stated change not applied, one chain of several) above
The target in another data set is She2p (ΔhE);She3p (Saccharomyces cerevisiae;Saccharomyces …, UniProt P36068;P38272 1-246;1-425, del174-183|). The data set is described as follows: EMSA; no mobility shift; EMSA: 20 mM HEPES pH 7.8, 200 mM NaCl, 2 mM MgCl2, 2 mM DTT, 4% glycerol, 30 or 100 ug/ml yeast tRNA, 5 nM RNA, 20 C; filter binding: 20 mM HEPES pH 7.4-7.5 (7.9 with She3p), 150 mM NaCl, 2 mM MgCl2, 2 mM DTT, 30 ug/ml yeast tRNA, 0.5 nM RNA; pull-down: HNMD buffer, 4 C. The note with it: protein: recombinant;recombinant; tags: GST tag (PreScission-cleaved);C-terminal His6; chain copies: 4;2; label: 32P; stem-loop.
Sequence of She2p (ΔhE);She3p (P36068 other isoform, or with tags, fused parts or gaps del174-183| | mutant): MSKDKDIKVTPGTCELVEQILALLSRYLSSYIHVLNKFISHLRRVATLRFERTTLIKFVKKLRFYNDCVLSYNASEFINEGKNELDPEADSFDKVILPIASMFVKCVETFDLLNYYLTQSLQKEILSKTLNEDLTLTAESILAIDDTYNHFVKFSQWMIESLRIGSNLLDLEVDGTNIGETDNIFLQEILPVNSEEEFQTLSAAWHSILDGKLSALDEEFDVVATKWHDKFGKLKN

Sequence of She2p (T191A D192A);She3p (P36068 whole entry T191A/D192A, one chain of several): as the sequence (P36068 whole entry, stated change not applied, one chain of several) above, with T191A, D192A counted along it

B1: ASH1 E3-118 (structured_RNA)
RNA: GAGACAGUAGAGAAUUGAUACAUGGAUAACUGAAUCUCUUUCAACUAAUAAGAGACAUUAUCACGAAACAAUUGUACAUUUCUCUCCUUGUCUGUGCUAAAUAAACUACAAAUAAAAA
In the case of B1, the binding result with She3p (L364A V367A) is given as “binds”; with She2p;She3p (R341E) it was “binds”; in data set [1] it was “binds”; in data set [2] it was “binds”; in data set [3], “binds”; in the data set with She2p (ΔhE);She3p, “no binding”.
